# Measured values: PMC8196545 (Cell reports, 2021)
# Target: HIV-1 NL4-3 Env on infected cells (HIV-1 group M subtype B, NL4-3 (pNL4-3 …, strain))
row,Binder,binding result
1,"c5333 (antibody, V domains shown) VH: EVQLLESGGGLVKPGGSLRLSCEASGYTFDSYGMSWVRQVPGQGLEWVSAINPNGRGTDYADSVKGRFTISRDNSRNILYLNMKNLRADDSAIYYCAKEWQLPFYPSLGPKFDFWGLGTRVTVSS VL: YIALTQSPLSLAVTPGEPASISCKSSQSLLHSNGFHFLDWYLQKPGKSPQLLIFLGFRRASGVPDRFSASGSGTDFILQISRVEAEDVGVYFCMQGLQTPLTFGGGTKLEIK",binds
2,"c9517 (antibody, V domains shown) VH: QVKLQESGPGLVKPSETLSLTCVVSGVSISQSDYFWNWLRQTPGKGLEWLGFISYSGDSFFNPSLGSRLAMSVDTSSNHISLSLKSMTAADAAVYYCARTFCDDVKCYPLFDSWGHGKLVAVSS VL: DIVMTQSPDSLPLSPGERASINCQSSQSVLYSSDNRNYLAWYQLKPGQPPKLLIYWASVRASGVPDRFSGSGSGTDFTLSISSLQAEDVAVYYCQQYYITPYSFGQGTKVEIR",binds
3,"c9370 (antibody, V domains shown) VH: EVQLVESGGGVVQPGGSLRLSCAASGFTFYSHTMIWVRQAPGKGPQYISHISSTGSNKDYSDSVKGRFTVSRDNDKNSLYLQMDSLRVEDTAIYYCARRSCSLTDCFVRSFSYDMDVWGQGTAVTVSS VL: QSALTQPASMSGSPGQSISISCTGTTSDIGGYDSVCWYRQHPGEAPTLLIYDVSNRPSGVSGRFSGSKSANTASLTISGLQAEDEADYYCSSYSTGSSLVVFGGGTKLTVI",binds
4,"c7490 (antibody, V domains shown) VH: QVRLIQSGTLVARPGSSVKVSCQAPGDILANDAVAWVRQAPGQSLEFLGGLPSNFAVGVRAPKFEDRLSIKVDRATKTVHMELRDLTFDDTAIYYCVTCPQRTSVVMSFYFQHWGQGSLVAVSS VL: DIQMTQSPASVSASVGDRVTISCRASEEISGRLAWYQQRPGQGPKLLISHTSTLQSGVPSRFTGSGSGTDFTLTISSLQPEDSATYYCQQAQYFPPTFGQGTRLDLK",binds
5,"c13160 (antibody, V domains shown) VH: QLHLQESGPGLVKPSETLFLTCTVSGGSMSSSSYYWVWIRQPPRGRDWSRIGSIYYTGSTLTTTHPWRVESLLSVDTSKNQFSLKMNSVTAADTARYYCASSGLYAFWGQGILVPVSS VL: DAVVTQSPLVLPVTLGQPASISCRSNQSLLFGEGNTYLNWFQQRPGQSPRRLIHNISKRDSGVPDRFSGSGSGTDFTLEISRVEAEDVGVYYCMQGIHSPPTWTFGQGTKVEIK",binds
6,"c5482 (antibody, V domains shown) VH: EVQLVESGGGLAQPGGSLRLSCAASGFDFNNYWFYWVRQAPGRGLVWVARVNADGSNTRYVDSVRGRFTISRDSAKKIVYLEMNSVRDEDTAIYYCSRDTFVRVSSTHGYWSGMDVWGHGTTVTVAS VL: SNELTQPPSVSVSPGQTATITCSGDVLSRQFVYWYQQKPGRAPVLVMYKDNERPSGIPERFSASSSGTRVTLTISGVQAEDEADYYCQSADNNGAHVFGTGTSVIVL",binds
7,"c6539 (antibody, V domains shown) VH: QVRLIQSGTEVARPGSSVRVSCQVPGDILDKNAVAWVRQAPGQVPEFMGGLPSNFAYGVRAQKFEDRLSIIPDRSTNTVDMILRSVTSHDTAIYYCVTCPHRTTVIMSFYFEFWGQGTLVAVSS VL: DVTVTQSPASVSASVGDRVTISCRASEDLMGRLAWYQQKPGHAPKLLISHTSTLQSGVPSRFTGSGSGADFTLTISSLQPEDSATYYCQQAQRFPPTFGQGTRLEIK",binds
8,"c9369 (antibody, V domains shown) VH: QVQLVQSGAEVKKPGSSVKVSCKASGGSFSDFGISWVRQAPGQGLEWMGGIIPGFETANYGQDFQGRVTMTADESTGTAYMEVRRLRSEDTAVYYCATTGQQNDYYSSGASYKLNYYFGLDVWGQGTAVSVSS VL: QSVLTQPPSSSGTPGQRVTISCSGSSSNIGSNTVNWYQQLPGTAPKVVISANHQRPSGVPDRFSASKSGASASLAISGLQSEDEADYYCAAWDDSRNAWVFGGGTKLTVL",binds
9,"c9416 (antibody, V domains shown) VH: QVQLVQSGAEVRKPGSSVKVSCKASGGSFSDFGISWVRQAPGQGLEWMGGIIPGFETANYGQDFQGRVTMTADESTGTAYMELRRLRSEDTAVYYCATTGQQNDYYSSGLSYKLNYYLGLDVWGQGTAVSVSS VL: QSVLTQPPSSSGTPGQRVTISCSGSSSNIGSNSVNWYQQLPGAAPKVVISANHQRPSGVPDRFSASKSGASASLAISGLQSEDEADYYCAAWDDSRNAWVFGGGTKLTVL",binds
10,"c22674 (antibody, V domains shown) VH: QVQLVQSGPEVKKPGTSVKVSCKASGYTFSNYAICWVRQAPGQGLEWVGATSAYNDETSYAQKFQGRVTVTRDSSTSTAYLELRSLRSEDSAVYYCARGGYYESSGSDASDYYAMDVWGQGTTVTVSS VL: SYELTQPPSVSVSLGQMARITCSGDALSKKYVYWYQQKPGQVPVLVMYQDTERPSGIPERFSGSTSGTIVTLIIGGVQAEDEADYFCLSADDSGTYVVFGGGTKLTVL",binds
11,"c11461 (antibody, V domains shown) VH: AGHLVESGGKLIRPGGSLSLSCVASGFTFRNAHMTWVRQVPGQGLEWIALMKSHADGSHTDYSPSVKNRCAISRDDSTSSLYLHLYNLQLDDTGIYFCVHLSSPDEWGLGTPVTVYS VL: HIVLTQSPVTLSGSQGDTVALSCRANESLRSHLAWYQQRPGQRPKLLIYEVSRRPPATPPRFSGSGSGTDFTLIIRGLEPEDSAVYYCQQGDFWPFSFGQGTNLEIT",binds
12,"c8452 (antibody, V domains shown) VH: EVQLDQSGAEMRKPGTTVKISCKVSGYTTTTDYYVHWVQQAPGKGPQWVGLINVEDGDTIYAEAFQGRVSITADTSKRRVFLDLSGLTSEDSALYFCTTQSLETDTGDYVSAFDSWGQGTLVSVSP VL: QSVLTQPPSVSAAPGQKVIISCSGRTSSVGTNFVSWYQQVPGAAPKLLIYDNENRPSGISDRFSASTSGTSATLAITALQSGDEADYYCGTWDSGLNPAIFVFGTGTRVSVL",binds
13,"c8603 (antibody, V domains shown) VH: AVQFLQSGAEVKKPGESLKISCQDRGYGFNDYWIAWVRQMPGKGLEWMGLIYPDDSDTRYSPSFQGQVTILADKSINTAYLQWNSLKASDSAIYYCARLMVVDERSENTFDIWGQGTVVTVSS VL: SSGLTQSPSLSVSPGQTATVTCSGDPLVNHFASWYQQQPGQSPILVIYQDNQRPSGIPERFSGSKTGNTATLTIGETQAADEADYFCQSWDITTAGMIFGGGTKLTVL",binds
14,"c5478 (antibody, V domains shown) VH: QVRLQQWGPGLLKPSDTLSLTCAVHGESFHDYSWTWIRQTPSLGLQWIGEIRPFGEIVHKSSLSGRLSFSRDTSKRQVSLRLTSVTAADAGVYFCARGPVIYHLPDFYYRGYNVWGQGTTVTVSA VL: DVVVTQSPRSLRVTPGESATIFCRSSQSLRHANGMHYLDWYLQKPGQSPQLLIYLTSNRASGVPDRFSGSGSGTEFTLKISRVEADDVGMYYCMQAIQDPRVFGQGTRLEIK",binds
15,"c754 (antibody, V domains shown) VH: QVQLVQSGPEVKKPGASARVSCKASGYMFSNNGISWVRQAPGQGLEWMGWISPQNGETLYAHKFQGRVSLTMDTSTNTAFLELTRLRSDDTAVYFCAREAHEDCGEENCFAETWLDTWGQGTQIIVSS VL: QSVLTQPPSASGTPGQRITMPCSGSNSNIGRRSVCWFQQFPGAAPKVVLYKDSQRPSGVPDRFSGSKSGTSASLTISGLRSDDEADYFCAAWDDSLNVWAFGGGTKLTVL",binds
